The target of this test is Pyrococcus abyssi 70S ribosome (Pyrococcus abyssi (endogenous in P. abyssi)) (UniProt Q9V109). Briefly: cryo-EM structure.
UniProt Q9V109, sequence (Q9V109 whole entry, looked up): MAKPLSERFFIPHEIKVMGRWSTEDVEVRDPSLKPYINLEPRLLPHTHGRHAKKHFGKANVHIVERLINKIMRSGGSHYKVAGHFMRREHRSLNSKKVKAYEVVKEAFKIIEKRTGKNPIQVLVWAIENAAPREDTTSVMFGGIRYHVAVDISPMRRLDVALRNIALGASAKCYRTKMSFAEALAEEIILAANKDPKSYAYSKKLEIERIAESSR

B1: Hib, endogenous, bound to ribosomes isolated from Pyrococcus abyssi cell extracts (natural protein)
chain: MVGIQVQEVMTDRYAKIDINAPLSEAIGIIEKEDPDLILVFDDNVYKGVLTQDLIIRSHLKWDPTKAKVRDVYKPAPVVKPTDDLSHAAKLLLETDLRSLPVGENKAEILGVISDMALLERVVAEEFGKRKVEEFMTKDVITLGPDDTVAKALATMRDHGISRIPVVDEEGKLEGLVTLHDLIIRFIKPRFKAQYGELAGEKIPPFSMKLREAMIKGVITIMPEATIREAVSTMKDNNIDGLVVVDENNKVVGILTVKDLLLPISRMVEKEARFYLQLGGDASALSEFTRERIINDIKRFVDGYADLLGNEGIIYLYIRRFNEKFRGVHLYQARMRVVTDRGVFIARGETWGAIQAVHDAIRAIERQLLQKAELERDIRYAKRFIEKLELWR
For B1, the percent of 70S particles that contained Hib came out at 51.6%.

The record behind these values is doi:10.1101/2025.10.11.676729.
